From article PMC7037359

Biological target: Human recombinant ADAM17 (human) (UniProt P78536)
Chain of UniProt P78536 (P78536 18-824): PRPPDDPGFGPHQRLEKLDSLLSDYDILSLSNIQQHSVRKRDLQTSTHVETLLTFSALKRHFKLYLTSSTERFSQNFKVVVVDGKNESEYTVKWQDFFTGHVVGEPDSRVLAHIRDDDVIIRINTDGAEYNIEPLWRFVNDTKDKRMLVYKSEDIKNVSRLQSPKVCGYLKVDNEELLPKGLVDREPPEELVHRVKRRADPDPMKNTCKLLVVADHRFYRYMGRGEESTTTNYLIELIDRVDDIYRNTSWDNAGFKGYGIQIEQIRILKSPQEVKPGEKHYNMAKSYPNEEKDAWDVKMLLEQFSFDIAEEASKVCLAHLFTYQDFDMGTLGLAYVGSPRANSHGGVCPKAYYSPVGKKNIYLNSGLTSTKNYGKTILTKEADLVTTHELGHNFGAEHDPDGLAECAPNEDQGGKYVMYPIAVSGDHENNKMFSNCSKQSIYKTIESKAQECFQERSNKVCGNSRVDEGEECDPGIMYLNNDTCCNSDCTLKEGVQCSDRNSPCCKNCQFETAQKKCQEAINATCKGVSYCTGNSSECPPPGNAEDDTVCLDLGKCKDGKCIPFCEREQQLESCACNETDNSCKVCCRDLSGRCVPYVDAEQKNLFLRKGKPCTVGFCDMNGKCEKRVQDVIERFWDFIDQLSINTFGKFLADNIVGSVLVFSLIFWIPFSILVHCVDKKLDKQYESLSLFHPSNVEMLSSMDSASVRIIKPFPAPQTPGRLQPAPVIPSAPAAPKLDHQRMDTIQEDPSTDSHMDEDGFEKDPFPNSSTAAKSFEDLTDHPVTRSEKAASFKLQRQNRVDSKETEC

## Mca-KPLGL-Dpa-AR-NH2, fluorogenic ADAM17 substrate (peptide)
  Km of the ADAM17-catalysed cleavage of the fluorogenic substrate (Lineweaver–Burk plot), control without E144: 580 µM
  Km of the ADAM17-catalysed cleavage of the fluorogenic substrate (Lineweaver–Burk plot), in the presence of 5 μM E144: 20 µM
